PMC9348755 (Science (New York, N.y.), 2022)

B1: C13C9 mAb (antibody, V domains shown)
VH: EVQLVQSGPEVKKPGTSARVSCKASGFTSKNTALQWVRQARGQPLEWMGWIDISNYITNYAQKFRGRLTITWDLSASMAYMELSSLRSEDTAVYYCAAVGKDDDVLTGGNKYFDHWGQGTLVTVSS
VL: SYELTQPPSVSVSPGQTARITCSGDALPKKYAYWYQQKSGQAPVLVIHEDDKRPSGIPGRFSASSSGTTATLTISGAQVEDEADYYCYSTDTNDNHAFGSGTKLTVL
notes: also called Group 3 mAb; fusion peptide-specific mAb
B2: VN01H1 mAb (antibody, V domains shown)
VH: EVQLVESGGGLVLPGGSLRLSCSASGFTFSDFSMHWVRQSPGKGLEYVSAITSSGSSTYYPDSVKGRFTISRDNSKNTLYLQMGSLRVEDTAVYWCVKNSDVFRFPHLYFDVWGRGTLVTVSS
VL: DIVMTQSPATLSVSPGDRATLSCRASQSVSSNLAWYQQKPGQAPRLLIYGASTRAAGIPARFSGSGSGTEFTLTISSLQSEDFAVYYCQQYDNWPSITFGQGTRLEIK
notes: as for B1
B3: VP12E7 mAb (antibody, V domains shown)
VH: QVQLVQSGGGVVQPGESLRLSCSGSGFTFNNYIMHWVRQAPGQGLDYVSGIGSDGRNTNYGDSVKGRFTISRDNSKDTLYLQMTSLRAEDTAFYYCVKGLDVLRFLDLSTPSGERLDAFDIWGQGTMVTVSS
VL: DIVMTQSPSFLSASVGDRVTITCRASQGISNYLAWYQQKPGKAPHLLIYAASTLQSGVPSRFSGSGSGTEFTLTISSLQPEDFATYYCQQLNSYPLFTFGPGTKVDIE
notes: as for B1
B4: C13B8 mAb (antibody, V domains shown)
VH: QVQLQESGPGLVQPSQTLTLTCTVSGDSISNEDYHWTWIRQHPGKGLEWMGYLQYSGNTNYNPSLKSRMTISVDTSKNQFSLRLNSVTAADTAVYFCATSIVLTGMSNKIQPFDYWGQGTLVTVSS
VL: SYELTQPPSVSVSPGQMARITCSGEALPKKYAYWYQQKGGQFPVLVIYKDTERPSGIPERFSGSSSGTIVTLTISGVQPEDEADYYCLSADTSGTWVFGGGTKLTVL
notes: as for B1
B5: C77G12 mAb (antibody, V domains shown)
VH: EVQLVESGGGVVQPGRSLRISCAVSGFTFGSYAMHWVRQAPGKGLEWVGVMSSDGHNEYYADSVKGRFTISRDNSRNKLYLEMNNLRVDDTAVFYCARGSDYVDDSPPLHYWGQGTLVTVSS
VL: DIQLTQSPSSLSASIGDRVTITCRASQDIANKLAWFQQAPGKAPKSLIYAASRLQSGVPSQFSGSGSGTDFTLTIESLQAGDFATYFCQQYDSFPFTFGPGTKVDVK
notes: as for B1

Target: prefusion PentaPro (F817) SARS-CoV-2 S2 (SARS-CoV-2 (Wuhan-Hu-1 assumed), UniProt P0DTC2, stabilised)
Test: ELISA
Conditions: both partners purified

Row | Binder | binding result
1 | B1 | binds
2 | B2 | binds
3 | B3 | binds
4 | B4 | binds
5 | B5 | binds
